# Assay results from doi:10.1101/2024.12.23.630039 (2024).
# Where two headings read alike, the source gives them in different places.
# Tests used:
# [1] = molecular target: T1, HLA-B*07:02 heavy chain with β2-microglobulin (MHC-I monomer, peptide groove as the binding site) (human | )
# [2] = molecular target: T1, HLA-B*07:02 heavy chain with …; assay: predicted/cited value [23]
Binder,Kd [1] [µM],Kd [2] [µM]
RPELVRPAL [high-affinity peptide for HLA-B*07:02 (Table 1)],0.00438,
RKELVRPAL [temperature-sensitive template peptide for HLA-B*07:02 (RKELVRPAL)],,4.12
